From patent publication US20230002496A1 (STAIDSON BEIJING BIOPHARMACEUTICALS, published 2023)

B1: E35-scFv LQ27S (scFv, V domains shown)
VH: QMQLVQSGAEVKKPGASVKVSCKVSGYTLTELSIHWVRQAPGKGLEWMGGFDPEDGETIYAQKFQGRVTMTGDTSTDTAYLELSSLRSEDTALYYCATGRYTSLATTYGFDYWGQGTLVTVSS
VL: EIVMTQSPATLSLSPGERATLSCRASSSVSSYLAWYQQKPGQAPRLLIYGASSRATGIPDRFSGSGSGTDFTLTISRLEPEDFAVYYCQQYDNWPYTFGQGTKLEIK
B2: E35-scFv LS31M (scFv, V domains shown)
VH: QMQLVQSGAEVKKPGASVKVSCKVSGYTLTELSIHWVRQAPGKGLEWMGGFDPEDGETIYAQKFQGRVTMTGDTSTDTAYLELSSLRSEDTALYYCATGRYTSLATTYGFDYWGQGTLVTVSS
VL: EIVMTQSPATLSLSPGERATLSCRASQSVSMYLAWYQQKPGQAPRLLIYGASSRATGIPDRFSGSGSGTDFTLTISRLEPEDFAVYYCQQYDNWPYTFGQGTKLEIK
B3: E35-scFv LS31Q (scFv, V domains shown)
VH: QMQLVQSGAEVKKPGASVKVSCKVSGYTLTELSIHWVRQAPGKGLEWMGGFDPEDGETIYAQKFQGRVTMTGDTSTDTAYLELSSLRSEDTALYYCATGRYTSLATTYGFDYWGQGTLVTVSS
VL: EIVMTQSPATLSLSPGERATLSCRASQSVSQYLAWYQQKPGQAPRLLIYGASSRATGIPDRFSGSGSGTDFTLTISRLEPEDFAVYYCQQYDNWPYTFGQGTKLEIK
B4: E35-scFv LS31A (scFv, V domains shown)
VH: QMQLVQSGAEVKKPGASVKVSCKVSGYTLTELSIHWVRQAPGKGLEWMGGFDPEDGETIYAQKFQGRVTMTGDTSTDTAYLELSSLRSEDTALYYCATGRYTSLATTYGFDYWGQGTLVTVSS
VL: EIVMTQSPATLSLSPGERATLSCRASQSVSAYLAWYQQKPGQAPRLLIYGASSRATGIPDRFSGSGSGTDFTLTISRLEPEDFAVYYCQQYDNWPYTFGQGTKLEIK
B5: E35-scFv LQ27C (scFv, V domains shown)
VH: QMQLVQSGAEVKKPGASVKVSCKVSGYTLTELSIHWVRQAPGKGLEWMGGFDPEDGETIYAQKFQGRVTMTGDTSTDTAYLELSSLRSEDTALYYCATGRYTSLATTYGFDYWGQGTLVTVSS
VL: EIVMTQSPATLSLSPGERATLSCRASCSVSSYLAWYQQKPGQAPRLLIYGASSRATGIPDRFSGSGSGTDFTLTISRLEPEDFAVYYCQQYDNWPYTFGQGTKLEIK
B6: E35-scFv LS31T (scFv, V domains shown)
VH: QMQLVQSGAEVKKPGASVKVSCKVSGYTLTELSIHWVRQAPGKGLEWMGGFDPEDGETIYAQKFQGRVTMTGDTSTDTAYLELSSLRSEDTALYYCATGRYTSLATTYGFDYWGQGTLVTVSS
VL: EIVMTQSPATLSLSPGERATLSCRASQSVSTYLAWYQQKPGQAPRLLIYGASSRATGIPDRFSGSGSGTDFTLTISRLEPEDFAVYYCQQYDNWPYTFGQGTKLEIK
B7: E35-scFv LS31R (scFv, V domains shown)
VH: QMQLVQSGAEVKKPGASVKVSCKVSGYTLTELSIHWVRQAPGKGLEWMGGFDPEDGETIYAQKFQGRVTMTGDTSTDTAYLELSSLRSEDTALYYCATGRYTSLATTYGFDYWGQGTLVTVSS
VL: EIVMTQSPATLSLSPGERATLSCRASQSVSRYLAWYQQKPGQAPRLLIYGASSRATGIPDRFSGSGSGTDFTLTISRLEPEDFAVYYCQQYDNWPYTFGQGTKLEIK
B8: E35-scFv LQ27E (scFv, V domains shown)
VH: QMQLVQSGAEVKKPGASVKVSCKVSGYTLTELSIHWVRQAPGKGLEWMGGFDPEDGETIYAQKFQGRVTMTGDTSTDTAYLELSSLRSEDTALYYCATGRYTSLATTYGFDYWGQGTLVTVSS
VL: EIVMTQSPATLSLSPGERATLSCRASESVSSYLAWYQQKPGQAPRLLIYGASSRATGIPDRFSGSGSGTDFTLTISRLEPEDFAVYYCQQYDNWPYTFGQGTKLEIK
B9: E35-scFv LS31H (scFv, V domains shown)
VH: QMQLVQSGAEVKKPGASVKVSCKVSGYTLTELSIHWVRQAPGKGLEWMGGFDPEDGETIYAQKFQGRVTMTGDTSTDTAYLELSSLRSEDTALYYCATGRYTSLATTYGFDYWGQGTLVTVSS
VL: EIVMTQSPATLSLSPGERATLSCRASQSVSHYLAWYQQKPGQAPRLLIYGASSRATGIPDRFSGSGSGTDFTLTISRLEPEDFAVYYCQQYDNWPYTFGQGTKLEIK
B10: E35-scFv LS31P (scFv, V domains shown)
VH: QMQLVQSGAEVKKPGASVKVSCKVSGYTLTELSIHWVRQAPGKGLEWMGGFDPEDGETIYAQKFQGRVTMTGDTSTDTAYLELSSLRSEDTALYYCATGRYTSLATTYGFDYWGQGTLVTVSS
VL: EIVMTQSPATLSLSPGERATLSCRASQSVSPYLAWYQQKPGQAPRLLIYGASSRATGIPDRFSGSGSGTDFTLTISRLEPEDFAVYYCQQYDNWPYTFGQGTKLEIK
B11: E35-VL93D-IG4 (antibody, IgG4, V domains shown)
VH: QMQLVQSGAEVKKPGASVKVSCKVSGYTLTELSIHWVRQAPGKGLEWMGGFDPEDGETIYAQKFQGRVTMTGDTSTDTAYLELSSLRSEDTALYYCATGRYTSLATTYGFDYWGQGTLVTVSS
VL: EIVMTQSPATLSLSPGERATLSCRASQSVSSYLAWYQQKPGQAPRLLIYGASSRATGIPDRFSGSGSGTDFTLTISRLEPEDFAVYYCQQYDDWPYTFGQGTKLEIK
B12: E35-VH28H-VL30L-93D-IG4 (antibody, IgG4, V domains shown)
VH: QMQLVQSGAEVKKPGASVKVSCKVSGYHLTELSIHWVRQAPGKGLEWMGGFDPEDGETIYAQKFQGRVTMTGDTSTDTAYLELSSLRSEDTALYYCATGRYTSLATTYGFDYWGQGTLVTVSS
VL: EIVMTQSPATLSLSPGERATLSCRASQSVLSYLAWYQQKPGQAPRLLIYGASSRATGIPDRFSGSGSGTDFTLTISRLEPEDFAVYYCQQYDDWPYTFGQGTKLEIK
B13: E35-VH28H-IG4 (antibody, IgG4, V domains shown)
VH: QMQLVQSGAEVKKPGASVKVSCKVSGYHLTELSIHWVRQAPGKGLEWMGGFDPEDGETIYAQKFQGRVTMTGDTSTDTAYLELSSLRSEDTALYYCATGRYTSLATTYGFDYWGQGTLVTVSS
VL: EIVMTQSPATLSLSPGERATLSCRASQSVSSYLAWYQQKPGQAPRLLIYGASSRATGIPDRFSGSGSGTDFTLTISRLEPEDFAVYYCQQYDNWPYTFGQGTKLEIK
B14: E35-VH28E-IG4 (antibody, IgG4, V domains shown)
VH: QMQLVQSGAEVKKPGASVKVSCKVSGYELTELSIHWVRQAPGKGLEWMGGFDPEDGETIYAQKFQGRVTMTGDTSTDTAYLELSSLRSEDTALYYCATGRYTSLATTYGFDYWGQGTLVTVSS
VL: EIVMTQSPATLSLSPGERATLSCRASQSVSSYLAWYQQKPGQAPRLLIYGASSRATGIPDRFSGSGSGTDFTLTISRLEPEDFAVYYCQQYDNWPYTFGQGTKLEIK
B15: E35-VH28E-VL30C-IG4 (antibody, IgG4, V domains shown)
VH: QMQLVQSGAEVKKPGASVKVSCKVSGYELTELSIHWVRQAPGKGLEWMGGFDPEDGETIYAQKFQGRVTMTGDTSTDTAYLELSSLRSEDTALYYCATGRYTSLATTYGFDYWGQGTLVTVSS
VL: EIVMTQSPATLSLSPGERATLSCRASQSVCSYLAWYQQKPGQAPRLLIYGASSRATGIPDRFSGSGSGTDFTLTISRLEPEDFAVYYCQQYDNWPYTFGQGTKLEIK
B16: E35-VH28H-VL30L-IG4 (antibody, IgG4, V domains shown)
VH: QMQLVQSGAEVKKPGASVKVSCKVSGYHLTELSIHWVRQAPGKGLEWMGGFDPEDGETIYAQKFQGRVTMTGDTSTDTAYLELSSLRSEDTALYYCATGRYTSLATTYGFDYWGQGTLVTVSS
VL: EIVMTQSPATLSLSPGERATLSCRASQSVLSYLAWYQQKPGQAPRLLIYGASSRATGIPDRFSGSGSGTDFTLTISRLEPEDFAVYYCQQYDNWPYTFGQGTKLEIK
B17: E35-VH28H-VL30C-IG4 (antibody, IgG4, V domains shown)
VH: QMQLVQSGAEVKKPGASVKVSCKVSGYHLTELSIHWVRQAPGKGLEWMGGFDPEDGETIYAQKFQGRVTMTGDTSTDTAYLELSSLRSEDTALYYCATGRYTSLATTYGFDYWGQGTLVTVSS
VL: EIVMTQSPATLSLSPGERATLSCRASQSVCSYLAWYQQKPGQAPRLLIYGASSRATGIPDRFSGSGSGTDFTLTISRLEPEDFAVYYCQQYDNWPYTFGQGTKLEIK
B18: E35-VH28E-VL30L-IG4 (antibody, IgG4, V domains shown)
VH: QMQLVQSGAEVKKPGASVKVSCKVSGYELTELSIHWVRQAPGKGLEWMGGFDPEDGETIYAQKFQGRVTMTGDTSTDTAYLELSSLRSEDTALYYCATGRYTSLATTYGFDYWGQGTLVTVSS
VL: EIVMTQSPATLSLSPGERATLSCRASQSVLSYLAWYQQKPGQAPRLLIYGASSRATGIPDRFSGSGSGTDFTLTISRLEPEDFAVYYCQQYDNWPYTFGQGTKLEIK
B19: E35-VH28H-VL93L-IG4 (antibody, IgG4, V domains shown)
VH: QMQLVQSGAEVKKPGASVKVSCKVSGYHLTELSIHWVRQAPGKGLEWMGGFDPEDGETIYAQKFQGRVTMTGDTSTDTAYLELSSLRSEDTALYYCATGRYTSLATTYGFDYWGQGTLVTVSS
VL: EIVMTQSPATLSLSPGERATLSCRASQSVSSYLAWYQQKPGQAPRLLIYGASSRATGIPDRFSGSGSGTDFTLTISRLEPEDFAVYYCQQYDLWPYTFGQGTKLEIK

target: T1, human GM-CSFRα, full length on cells (human, UniProt P15509 23-400); experiment: cell-based or functional assay
T1 sequence: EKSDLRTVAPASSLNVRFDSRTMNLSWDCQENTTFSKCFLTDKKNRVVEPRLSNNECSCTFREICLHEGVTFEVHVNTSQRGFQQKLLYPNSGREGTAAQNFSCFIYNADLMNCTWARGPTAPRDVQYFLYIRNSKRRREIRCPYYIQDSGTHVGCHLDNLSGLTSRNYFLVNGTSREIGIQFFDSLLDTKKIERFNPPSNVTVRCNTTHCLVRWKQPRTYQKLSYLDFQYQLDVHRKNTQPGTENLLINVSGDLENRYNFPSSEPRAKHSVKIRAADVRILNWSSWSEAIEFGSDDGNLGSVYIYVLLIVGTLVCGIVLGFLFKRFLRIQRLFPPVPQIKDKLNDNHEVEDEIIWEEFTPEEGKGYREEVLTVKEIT

In order of falling “IC50, TF-1 cell proliferation” value:
1. B2  0.156 µg/mL
2. B5  0.142 µg/mL
3. B10  0.139 µg/mL
4. B1  0.138 µg/mL
5. B8  0.135 µg/mL
6. B3  0.117 µg/mL
7. B9  0.106 µg/mL
8. B4  0.078 µg/mL
9. B7  0.069 µg/mL
10. B6  0.06 µg/mL

target: T1, human GM-CSFRα, full length on cells; experiment: cell-based or functional assay; remark: another data set of the same source

In order of rising “IC50, TF-1 cell proliferation” value:
1. B19  0.0163 µg/mL
2. B15  0.0208 µg/mL
3. B12  0.0241 µg/mL
4. B18  0.0268 µg/mL
5. B16  0.0296 µg/mL
6. B14  0.0307 µg/mL
7. B11  0.0371 µg/mL
8. B17  0.0431 µg/mL
9. B13  0.0569 µg/mL
